Test results: the Human Domainome abundance scans (Beltran et al. 2025)
± gives the uncertainty stated by the source.

B1: Poly(rC)-binding protein 1, residues 278 to 350; numbered along this chain, Q15365 (parent)
chain: TQTTHELTIPNNLIGCIIGRQGANINEIRQMSGAQIKIANPVEGSSGRQVTITGSAASISLAQYLINARLSSE

Variants of: B1
Assay: abundance fitness (aPCA) (normalised: wild type 0, dead -1); higher = more abundant; growth selection in yeast, the domain comes from the species named
Conditions: Homo sapiens

In order of rising abundance fitness:
1. Q63P  -1.17 ± 0.27
2. I66Q  -1.16 ± 0.46
3. G54Q  -1.11 ± 0.29
4. G54Y  -1.08 ± 0.46
5. G54M  -1.02 ± 0.26
6. I66R  -0.996 ± 0.23
7. V50W  -0.989 ± 0.2
8. S58I  -0.988 ± 0.43
9. S58W  -0.949 ± 0.11
10. A62M  -0.948 ± 0.16
11. G54A  -0.916 ± 0.083
12. G54W  -0.912 ± 0.14
13. A62E  -0.902 ± 0.15
14. V50T  -0.901 ± 0.17
15. A62K  -0.888 ± 0.14
16. A62W  -0.882 ± 0.31
17. V50S  -0.882 ± 0.16
18. G54S  -0.881 ± 0.11
19. G54L  -0.877 ± 0.12
20. V50G  -0.865 ± 0.089
21. G54T  -0.854 ± 0.12
22. G54C  -0.85 ± 0.18
23. G54E  -0.838 ± 0.13
24. G54D  -0.834 ± 0.19
25. A62N  -0.828 ± 0.4
26. V50N  -0.819 ± 0.25
27. V50R  -0.818 ± 0.11
28. G54P  -0.805 ± 0.12
29. G54K  -0.804 ± 0.18
30. S58L  -0.801 ± 0.076
31. V50D  -0.796 ± 0.25
32. A62T  -0.794 ± 0.12
33. A62Q  -0.78 ± 0.29
34. T53P  -0.777 ± 0.12
35. A62C  -0.768 ± 0.23
36. A62R  -0.734 ± 0.083
37. I66S  -0.721 ± 0.2
38. V50E  -0.714 ± 0.12
39. A62D  -0.711 ± 0.24
40. V50K  -0.7 ± 0.14
41. A62F  -0.657 ± 0.26
42. V50A  -0.639 ± 0.089
43. A62G  -0.622 ± 0.071
44. A62P  -0.606 ± 0.1
45. V50F  -0.602 ± 0.19
46. V50H  -0.596 ± 0.35
47. I66G  -0.594 ± 0.13
48. V50Y  -0.57 ± 0.46
49. S58V  -0.568 ± 0.052
50. G54F  -0.507 ± 0.25
51. G47P  -0.491 ± 0.075
52. T53H  -0.491 ± 0.15
53. S58P  -0.47 ± 0.082
54. Q63Y  -0.469 ± 0.22
55. G54H  -0.465 ± 0.21
56. I66P  -0.459 ± 0.15
57. A62V  -0.448 ± 0.07
58. I66A  -0.438 ± 0.1
59. I66F  -0.414 ± 0.22
60. T53N  -0.385 ± 0.16
61. G47I  -0.379 ± 0.18
62. S58M  -0.354 ± 0.06
63. T53F  -0.321 ± 0.12
64. Y64P  -0.312 ± 0.13
65. T53G  -0.308 ± 0.036
66. S58K  -0.3 ± 0.06
67. Q63W  -0.28 ± 0.082
68. T53W  -0.274 ± 0.049
69. A56W  -0.269 ± 0.052
70. Y64F  -0.266 ± 0.23
71. Q63G  -0.264 ± 0.058
72. A56Y  -0.245 ± 0.091
73. S58C  -0.241 ± 0.076
74. S58T  -0.241 ± 0.051
75. S58G  -0.227 ± 0.035
76. Y64W  -0.209 ± 0.11
77. V50M  -0.202 ± 0.056
78. I66C  -0.188 ± 0.2
79. S46V  -0.179 ± 0.067
80. Q63F  -0.175 ± 0.12
81. S58F  -0.149 ± 0.14
82. V50C  -0.147 ± 0.093
83. S46M  -0.139 ± 0.054
84. T53C  -0.137 ± 0.071
85. G47H  -0.129 ± 0.094
86. T53Y  -0.129 ± 0.13
87. T53A  -0.126 ± 0.036
88. S46W  -0.125 ± 0.069
89. T53I  -0.125 ± 0.12
90. Q63H  -0.124 ± 0.23
91. T53V  -0.118 ± 0.039
92. S46Y  -0.117 ± 0.057
93. G47F  -0.116 ± 0.096
94. S46R  -0.106 ± 0.048
95. A56C  -0.102 ± 0.07
96. Y64M  -0.098 ± 0.11
97. G47C  -0.097 ± 0.062
98. I66M  -0.094 ± 0.16
99. A56N  -0.078 ± 0.078
100. Q63C  -0.078 ± 0.11
101. A56G  -0.077 ± 0.034
102. Q63A  -0.077 ± 0.045
103. I66L  -0.076 ± 0.13
104. T53Q  -0.075 ± 0.053
105. G47W  -0.073 ± 0.047
106. A56V  -0.072 ± 0.047
107. V50L  -0.069 ± 0.035
108. S46T  -0.063 ± 0.046
109. T53M  -0.063 ± 0.056
110. G47R  -0.062 ± 0.035
111. S46Q  -0.048 ± 0.048
112. A56E  -0.044 ± 0.047
113. T53S  -0.041 ± 0.042
114. Q63M  -0.04 ± 0.07
115. A56R  -0.039 ± 0.035
116. Y64L  -0.031 ± 0.078
117. S46P  -0.029 ± 0.049
118. A56D  -0.029 ± 0.06
119. A56H  -0.027 ± 0.089
120. A56I  -0.024 ± 0.11
121. Q63V  -0.019 ± 0.046
122. G47K  -0.01 ± 0.052
123. G47Y  -0.008 ± 0.085
124. T53R  -0.007 ± 0.031
125. Q63E  -0.002 ± 0.061
126. G47L  0 ± 0.03
127. Q63T  0.006 ± 0.053
128. G47T  0.008 ± 0.052
129. S58N  0.009 ± 0.14
130. S58D  0.009 ± 0.068
131. G47A  0.013 ± 0.036
132. G47V  0.017 ± 0.029
133. G47S  0.023 ± 0.043
134. A56L  0.026 ± 0.051
135. A56T  0.026 ± 0.066
136. A56K  0.029 ± 0.055
137. A56F  0.032 ± 0.11
138. G47D  0.032 ± 0.062
139. G47M  0.043 ± 0.041
140. V50I  0.047 ± 0.088
141. G47N  0.047 ± 0.099
142. S58E  0.052 ± 0.038
143. G47Q  0.054 ± 0.056
144. S46L  0.064 ± 0.041
145. Y64H  0.064 ± 0.14
146. Q63I  0.064 ± 0.12
147. G47E  0.067 ± 0.039
148. S46N  0.069 ± 0.052
149. T53K  0.075 ± 0.049
150. A56Q  0.076 ± 0.062
151. S58Q  0.08 ± 0.045
152. A56M  0.081 ± 0.062
153. Q63D  0.091 ± 0.12
154. Q63L  0.116 ± 0.06
155. Y64V  0.121 ± 0.05
156. Y64Q  0.14 ± 0.098
157. Y64C  0.195 ± 0.09
158. Y64G  0.212 ± 0.038
159. Q63K  0.223 ± 0.069
160. Y64K  0.233 ± 0.074
161. Y64S  0.24 ± 0.05
162. Y64R  0.28 ± 0.043
163. Y64T  0.287 ± 0.059
164. Y64E  0.298 ± 0.053
165. I66H  0.299 ± 0.49
166. Y64N  0.328 ± 0.082
167. Y64D  0.411 ± 0.072
